The record followed here is patent US20240059799A1 (Pfizer, published 2024).

Assay [1] deals with T1, human IL-12 (human, UniProt P29460 23-328; P29459 23-219).
T1 sequence 1: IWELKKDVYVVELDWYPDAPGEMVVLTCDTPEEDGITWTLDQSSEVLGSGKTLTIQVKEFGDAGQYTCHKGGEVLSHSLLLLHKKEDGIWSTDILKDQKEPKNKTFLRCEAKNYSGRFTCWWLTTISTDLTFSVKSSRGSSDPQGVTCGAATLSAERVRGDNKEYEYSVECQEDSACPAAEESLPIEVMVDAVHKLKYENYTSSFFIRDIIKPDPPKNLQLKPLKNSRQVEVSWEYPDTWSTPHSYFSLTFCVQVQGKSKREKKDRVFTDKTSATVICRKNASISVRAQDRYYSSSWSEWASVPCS
T1 sequence 2: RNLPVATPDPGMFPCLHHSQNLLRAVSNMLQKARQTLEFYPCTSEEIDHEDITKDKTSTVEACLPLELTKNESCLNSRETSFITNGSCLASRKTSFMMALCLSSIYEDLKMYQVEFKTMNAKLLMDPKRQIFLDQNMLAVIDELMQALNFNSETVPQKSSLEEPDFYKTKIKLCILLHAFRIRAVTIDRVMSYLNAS
Put plainly: cell-based or functional assay.

The target of assay [2] is T2, recombinant human TL1A (human, UniProt O95150 71-251).
T2 chain: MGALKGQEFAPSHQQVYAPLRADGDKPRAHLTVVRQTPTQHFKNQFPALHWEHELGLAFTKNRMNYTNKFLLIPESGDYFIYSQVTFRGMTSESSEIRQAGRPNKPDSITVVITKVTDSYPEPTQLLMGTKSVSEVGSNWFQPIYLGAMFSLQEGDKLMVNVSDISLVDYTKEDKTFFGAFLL
Put plainly: cell-based or functional assay.

The target of assay [3] is T3, human IL-23 (human, UniProt P29460 23-328; Q9NPF7 20-189).
T3 sequence 1: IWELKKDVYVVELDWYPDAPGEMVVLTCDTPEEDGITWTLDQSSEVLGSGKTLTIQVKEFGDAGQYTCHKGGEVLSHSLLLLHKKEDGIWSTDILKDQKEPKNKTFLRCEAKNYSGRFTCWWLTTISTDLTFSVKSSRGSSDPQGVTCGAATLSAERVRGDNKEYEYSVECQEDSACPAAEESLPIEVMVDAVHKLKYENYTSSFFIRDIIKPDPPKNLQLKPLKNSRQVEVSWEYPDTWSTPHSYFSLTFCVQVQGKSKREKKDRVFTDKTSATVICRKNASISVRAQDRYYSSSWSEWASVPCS
T3 sequence 2: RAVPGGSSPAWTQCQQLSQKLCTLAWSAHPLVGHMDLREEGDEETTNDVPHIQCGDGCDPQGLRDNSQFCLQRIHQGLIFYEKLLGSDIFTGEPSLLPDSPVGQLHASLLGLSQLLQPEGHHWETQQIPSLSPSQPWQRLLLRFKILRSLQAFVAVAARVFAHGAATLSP
Briefly: cell-based or functional assay.

Assay [4] addresses T4, rabbit IL-23 (rabbit).
T4 chain 1: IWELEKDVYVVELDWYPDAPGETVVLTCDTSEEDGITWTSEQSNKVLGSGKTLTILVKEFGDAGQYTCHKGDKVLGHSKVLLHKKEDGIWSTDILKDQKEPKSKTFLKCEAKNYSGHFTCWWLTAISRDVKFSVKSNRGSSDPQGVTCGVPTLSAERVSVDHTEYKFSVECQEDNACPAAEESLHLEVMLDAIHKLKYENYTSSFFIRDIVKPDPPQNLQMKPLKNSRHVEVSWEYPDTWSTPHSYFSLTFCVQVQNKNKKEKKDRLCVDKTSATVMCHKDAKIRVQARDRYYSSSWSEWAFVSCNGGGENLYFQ
T4 chain 2: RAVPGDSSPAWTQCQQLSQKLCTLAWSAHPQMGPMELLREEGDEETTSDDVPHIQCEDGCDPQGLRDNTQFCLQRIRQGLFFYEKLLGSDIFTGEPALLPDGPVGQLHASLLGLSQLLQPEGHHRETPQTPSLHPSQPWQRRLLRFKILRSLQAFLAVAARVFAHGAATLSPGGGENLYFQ
Put plainly: SPR, Biacore 8K+, 37 C; antibody captured by anti-human Fc, cytokine injected. As for the experimental part: (§1) In order to determine binding to TL1A, kinetic assays were conducted at 37° C. using a collection rate of 10 Hz on a Biacore™ T200 instrument (GE Healthcare). […] For the analysis of the p40 binding arm, kinetic assays were conducted at 37° C. using a collection rate of 10 Hz on a Biacore™ 8 K+ instrument (GE Healthcare).

Assay [5] addresses T5, rat IL-12 (rat, UniProt P43432 23-335; Q9R103 23-215, limits assumed).
T5 chain 1: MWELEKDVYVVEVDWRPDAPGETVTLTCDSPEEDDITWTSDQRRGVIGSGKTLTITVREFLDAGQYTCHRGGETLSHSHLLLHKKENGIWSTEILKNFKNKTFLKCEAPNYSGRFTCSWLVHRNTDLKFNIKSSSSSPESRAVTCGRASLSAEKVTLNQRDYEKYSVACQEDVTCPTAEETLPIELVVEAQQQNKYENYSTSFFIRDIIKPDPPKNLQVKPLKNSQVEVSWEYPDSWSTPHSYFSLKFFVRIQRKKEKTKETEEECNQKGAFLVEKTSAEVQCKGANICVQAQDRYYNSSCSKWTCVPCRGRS
T5 chain 2: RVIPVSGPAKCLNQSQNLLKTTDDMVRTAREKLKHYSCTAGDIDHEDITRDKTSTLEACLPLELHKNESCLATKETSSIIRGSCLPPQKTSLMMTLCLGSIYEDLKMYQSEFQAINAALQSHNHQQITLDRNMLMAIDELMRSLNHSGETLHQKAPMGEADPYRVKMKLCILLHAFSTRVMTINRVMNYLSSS
The assay is described as above. As for the experimental part:
as §1

For assay [6], the target named is T6, rat IL-23 (rat, UniProt P43432 23-335; Q91Z84 22-196, limits assumed).
T6 chain 1: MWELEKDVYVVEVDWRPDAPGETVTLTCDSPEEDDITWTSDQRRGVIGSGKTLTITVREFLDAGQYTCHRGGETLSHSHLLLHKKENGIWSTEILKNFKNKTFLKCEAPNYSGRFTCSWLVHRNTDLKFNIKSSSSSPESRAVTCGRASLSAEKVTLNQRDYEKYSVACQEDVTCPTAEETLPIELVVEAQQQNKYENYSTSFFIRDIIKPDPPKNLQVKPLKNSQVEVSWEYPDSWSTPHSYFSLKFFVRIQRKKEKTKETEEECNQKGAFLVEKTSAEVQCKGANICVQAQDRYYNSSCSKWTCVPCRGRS
T6 chain 2: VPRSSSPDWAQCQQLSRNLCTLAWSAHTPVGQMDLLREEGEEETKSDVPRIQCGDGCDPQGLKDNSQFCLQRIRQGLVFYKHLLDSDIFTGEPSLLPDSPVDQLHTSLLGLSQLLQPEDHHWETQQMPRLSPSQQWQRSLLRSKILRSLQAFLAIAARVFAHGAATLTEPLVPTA
Described as above. As for the experimental part: as §1

B1: p40TL1A-0033 bispecific antibody (bispecific antibody, human IgG1, kappa)
heavy: EVQLVQSGAEVKKPGESLKISCKGSGYSFTTYWLGWVRQMPGKGLDWIGIMSPVDSDIRYSPSFQGQVTMSVDKSITTAYLQWNSLKASDTAMYYCARRRPGQGYFDFWGQGTLVTVSSASTKGPSVFPLAPSSKSTSGGTAALGCLVKDYFPEPVTVSWNSGALTSGVHTFPAVLQSSGLYSLSSVVTVPSSSLGTQTYICNVNHKPSNTKVDKKVEPKSCDKTHTCPPCPAPEAAGAPSVFLFPPKPKDTLMISRTPEVTCVVVDVSHEDPEVKFNWYVDGVEVHNAKTKPREEQYNSTYRVVSVLTVLHQDWLNGKEYKCKVSNKALPAPIEKTISKAKGQPREPQVCTLPPSREEMTKNQVSLWCLVKGFYPSDIAVEWESNGQPENNYKTTPPVLDSDGSFFLYSKLTVDKSRWQQGNVFSCSVLHEALHSHYTQKSLSLSPGK
light: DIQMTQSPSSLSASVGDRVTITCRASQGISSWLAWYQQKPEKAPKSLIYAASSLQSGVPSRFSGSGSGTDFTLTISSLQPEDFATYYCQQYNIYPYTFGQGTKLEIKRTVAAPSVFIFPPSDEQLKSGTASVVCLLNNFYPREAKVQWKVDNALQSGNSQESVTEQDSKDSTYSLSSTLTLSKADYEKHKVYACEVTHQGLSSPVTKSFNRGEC
chain 1: not shown
chain 2: QVQLVQSGAEVKKPGASVKVSCKASGYDYTYYGISWVRQAPGQGLEWMGWISTYNTGTHYAPSLQGRVTMTTDTSTSTAYMELRSLRSDDTAVYYCARESYYGSGAFRGGMDVWGQGTTVTVSSASTKGPSVFPLAPSSKSTSGGTAALGCLVKDYFPEPVTVSWNSGALTSGVHTFPAVLQSSGLYSLSSVVTVPSSSLGTQTYICNVNHKPSNTKVDKKVEPKSC
notes: Single cell KiH, modified Fd format; IgG1 effector-function-minimized Fc with LS mutations
As to B1, in assay [1], the “KIT-225 STAT4 assay IL-12, Bioactivity relative to p40-0003” value came to 1.4 fold and the “KIT-225 STAT4 assay IL-12 IC50” value turned out to be 4.8 nM. Also, in assay [2], the “NF-κB assay IC50 (TF-1 reporter cells)” value is 0.131 nM and the “NF-κB assay, Bioactivity relative to TL1A-0372” value stood at 1.3 fold. In assay [3], the “KIT-225 STAT3 assay IL-23, Bioactivity relative to p40-0003” value stood at 1.4 fold and the “KIT-225 STAT3 assay IL-23 IC50” value worked out at 2.3 nM. Also, in assay [4], the binding result is given as “no binding (tested: 200 nM)”. Also, the binding result in assay [5] is given as “no binding (tested: 200 nM)”. Also, in assay [6], the binding result was “no binding (tested: 200 nM)”.
